This series can be described thus: yeast display, Sf9 membrane polyspecificity reagent, FACS + sequencing; frameworks hold sequencing errors. The gist of the method:
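Nanobodies from a synthetic yeast display library (Saccharomyces cerevisiae BJ5465), induced 36–48 hours with galactose, were stained 1 hour at 4 °C with 10% biotinylated, detergent-solubilized Sf9 membrane reagent, enriched on streptavidin microbeads, then FACS-sorted. Anti-HA (expression) and streptavidin (reagent binding) fluorescence set low and high (top ~1%) gates. Polyreactivity labels come from the gate of origin. Genes were colony-PCR amplified, MiSeq 2 × 250 sequenced and filtered by CDR length.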
As to “QVQLVESGGGLVQAGGSLRLSCAASGRTFLVYAMGWYRQAPGKERELVADITGRGGITYYADSVKGRFTISRDNAKNTVYLQMNSLKPEDTAVYYCAAERYNSKTIYRYDYWGQGTQVTVSS”, the “polyreactivity (PSR sort gate)” value is “high polyreactivity”.
On to “QVQLVESGGGLVQAGGSLRLSCAASGRTFLVYAMGWYRQAPGKERELVATIRASTGSTYADSVKGRFTISRDNAKNTVYLQMNSLKPEDTAVYYCNAVHYFLYGYYSWGQGTQVTVSS”, for which the “polyreactivity (PSR sort gate)” value is reported as “high polyreactivity”.
As for “QVQLVESGGGLVQAGGSLRLSCAASGRTFLVYARGWYRQAPGKDRELVAAISISSGSTYYADSVKGRFTISRDNAKNTVYLQMNSLKPEDTAVYYCAAVYTYVKRASENDYWGQGTQVTVSS”, the entry is “low polyreactivity”; as for “QVQLVESGGGLVQAGGSLRLSCAASGRTFLVYTMGWYREAPGKERELVAAISWSDGSTYYADSVKGRFTISRDNAKNTVYLQMNSLKPEDTADYYCAARRTGYLYRYGYWGQGTQVTVSS”, “low polyreactivity”.
As for “QVQLVESGGGLVQAGGSLRLSCAASGRTFLWNDMGWYRQAPGKERELVAAITGSDGTYADSVKGRFTISRDNAKNTVYLQMNSLKPEDTAVYYCAAVYSYQNEGYDYWGQGTQVTVSS”, the entry is “low polyreactivity”; as for “QVQLVESGGGLVQAGGSLRLSCAASGRTFLYNAMGWYRQAPGKERELVATITWSDDGTYYADSVKGRFTISRDNAKNTVYLQMNSLKPEDTAVYYCAAVYPRTRVKMDYWGQGTQVTVSS”, “low polyreactivity”; as for “QVQLVESGGGLVQAGGSLRLSCAASGRTFLYYAMGWFRQAPGKERELVAAISASGGSTYYADSVKGRFTISRDNAKNTVYLQMNSLKPEETAVYSCARYTGWGSRYDYWGQGTQVTVSS”, “high polyreactivity”.
To “QVQLVESGGGLVQAGGSLRLSCAASGRTFLYYAMGWYRQAPGKERELVAAISTGSSTYYADSVKGRFTISRDNAKNTVYLQMNSLKPEDTAVYYCAAGSIVGYPGFSTDDYWGQGTQVTVSS” belongs “low polyreactivity”; to “QVQLVESGGGLVQAGGSLRLSCAASGRTFLYYTMGWYRQAPGKERELVAVISIEGGGTYADSVKGRFTISRDNAKNTVYLQMNSLKPEDTAVYYCAVDALSITYGYWGQGTQVNVSS”, “low polyreactivity”.
On to “QVQLVESGGGLVQAGGSLRLSCAASGRTFNFYSMGCYRQAPRKERELVAAISHGDSTYYADSVKGRFTISRDNAKNTVYLQMNSLNPEDTAVYYCAASQKYYLRKYEYWGQGTQVTVSS”, for which the “polyreactivity (PSR sort gate)” value is listed as “low polyreactivity”.
On to “QVQLVESGGGLVQAGGSLRLSCAASGRTFNGYAMGWYRQAPGKERELVARITYRGGGTYYADSVKGRFTISRDNAKNTVYLQMNSLKPEDTAVYYCNARGVQYRYYYWGQGTQVTVSS”, for which the “polyreactivity (PSR sort gate)” value was “high polyreactivity”.
As for “QVQLVESGGGLVQAGGSLRLSCAASGRTFNGYAMGWYRQAPGKERELVASISWSGGRTYYADSVKGRFTISRDNAKNTVYFQMNSLKPEDTAVYYCAATFVNVVGYDYWGQGTQVTVST”, the entry is “high polyreactivity”; as for “QVQLVESGGGLVQAGGSLRLSCAASGRTFNKNSMGWYRQAPGKERELVAAITTGGGTYYADSVKGRFTISRDNAKNTVYLQMNSLKPEDTAVYYCAARRRRWSGYWGQGTQVTVSS”, “high polyreactivity”.
To “QVQLVESGGGLVQAGGSLRLSCAASGRTFNKYAMGWYTQAPGKERELVAAISTRGGSTYYADSVKGRFTISRDNAKNTVDLQMNSLKPEDTAVYYCAARLTTVGQGFDYWGQGTQVTVSS” belongs “high polyreactivity”; to “QVQLVESGGGLVQAGGSLRLSCAASGRTFNLYAMGWYRQAPGKEREFVAAISYSGDSTYYADSVKGRFTISRDNAKNTVYLQMNSLKPEDTAVYYCNADRLQVTRTYDYWGQGTQVTVSS”, “low polyreactivity”.
To “QVQLVESGGGLVQAGGSLRLSCAASGRTFNNNAMGWYRQAPGKERELVAAITSGGSTNYADSVKGRFTISRDNAKNTVYLQMNSLKPEDTAVYYCNAGYYSRRYYFSGRLDYWGQGTQVTVSS” belongs “low polyreactivity”.
“QVQLVESGGGLVQAGGSLRLSCAASGRTFNPYVMGWYRQAPGKERELVAVITSSGDSTYYADSVKGRFTISRDNAKNTVYLQMNSLKPEDTAVYYCNADYLYYDYDYWGQGTQVTVSS”: the “polyreactivity (PSR sort gate)” value is on record as “high polyreactivity”.
As for “QVQLVESGGGLVQAGGSLRLSCAASGRTFNRNAMGWYRQAPAKERELVAAITSSGGRTYYADSVKGRFTISRDNAKNTVYLQMNSLKPEDTAVYYCNVGPYYPVYLGYLLWYDYWGQGTQVTVSS”, the entry is “high polyreactivity”.
In the case of “QVQLVESGGGLVQAGGSLRLSCAASGRTFNRNAMGWYRQAPGKERELVAAISRGGGGTFYADSVKGRFTISRDNAKNTVYLQMNSLKPEDTAVYYCAAELYYWTYVRFDYWGQGTQVTVSS”, the “polyreactivity (PSR sort gate)” value is recorded as “low polyreactivity”.
As for “QVQLVESGGGLVQAGGSLRLSCAASGRTFNRYAMGWYRQAPGKERELVAAINWSGGSTYYADSVKGRFTISRDNAKNTVYLQMNSLKPEDTAVYYCNAGLGKFPVKGGRRYRLDYWGQGTQVTVSS”, the entry is “low polyreactivity”; as for “QVQLVESGGGLVQAGGSLRLSCAASGRTFNRYAMGWYRQAPGKERELVAAISGGGSSTSYADSVKGRFTISRDNAKNTVYLQMNSLKPEDTAVYYCAAKYGALRYYNMYYWGQGTQVTVSS”, “low polyreactivity”.
As to “QVQLVESGGGLVQAGGSLRLSCAASGRTFNRYVMGWYRQAPGNERELVAALTSSGRTNYADSVKGRFTLSRDNAKNTVYLQMNSLKPEDTAVYYCAKGLYRRYYRVWWLRGDYWGQGTQVTVSS”, the “polyreactivity (PSR sort gate)” value was “high polyreactivity”.
As for “QVQLVESGGGLVQAGGSLRLSCAASGRTFNSYAMGWYRQAPGKERELVAAISRRGGSTYYADSVKGRFTISRDNAKNTVYLQMNSLKPEDTAVYYCASTIVQYISRMDYWGQGTQVTVSS”, the entry is “high polyreactivity”; as for “QVQLVESGGGLVQAGGSLRLSCAASGRTFNTNAMGWYRQAPGKERELVAAISRRSGSTYYADSVKGRFTISRDNAKNTVYLQMNSLKPEDTGVYYCARTAVRKYPYEYWGQGPQVTVSS”, “high polyreactivity”.
To “QVQLVESGGGLVQAGGSLRLSCAASGRTFNTYAMGWYRQAPGKERELVAAISKRGGSTYYADSVKGRFTISRDNAKNTVYLQMNSLKPEDTAVYYCNAKGNVRMYWGQGTQVTVSS” belongs “high polyreactivity”.
To “QVQLVESGGGLVQAGGSLRLSCAASGRTFNVNAMGWYRQAPGIERELVATISSAASTNYADSVKGRFTISRDNAKNTVYLQMNSLKPEDTAVYYCNAAFYKEYYYWGQGTQVTVSS” belongs “low polyreactivity”.
In the case of “QVQLVESGGGLVQAGGSLRLSCAASGRTFNYYAMAWYRQAPGKERELVAAISYSGGSTYYADSVKGRFTISRDNAKNTVYLQMNSLKPEDTAVYYCAVVIKWRSSYVYSYYYWGQGTQVTVSS”, the “polyreactivity (PSR sort gate)” value is recorded as “high polyreactivity”.
To “QVQLVESGGGLVQAGGSLRLSCAASGRTFNYYAMGWYRQAPGKERELVASIRYSTGSTYYADSVKGRFTISRDNAKNTVYLQMNSLKPEDTAVYYCAARRYARASRYDYWGQGTQVTVSS” belongs “high polyreactivity”; to “QVQLVESGGGLVQAGGSLRLSCAASGRTFPAYAMGWYRQAPGKERELVAAISYSGGRTRYADSVKGRFTISRDNAKNTVYLQMNSLKPEDTAVYYCNRVIPTHSLRDYYWGQGSQVTVSS”, “high polyreactivity”.
As for “QVQLVESGGGLVQAGGSLRLSCAASGRTFPAYTMGWYRPAPGKERELVAAIRWSGGRTRYADSVKGRFTISRDNAKNTVYLQMNSLKPEDTAVYYCAAYRLSKPFYKYDYWGQGTQVTVSS”, the entry is “high polyreactivity”; as for “QVQLVESGGGLVQAGGSLRLSCAASGRTFPAYTMGWYRQAPGKERELVAAINWSGGSTYYADSVKGRFTISRDNAKNTVYLQMNSLKPEDTAVYYCARTSRYYGFRSYGTLDYWGLGTQVTVSS”, “high polyreactivity”.
As for “QVQLVESGGGLVQAGGSLRLSCAASGRTFPEYGMGWYRQAPGKEREFVAAISTRGGSTYYANSVKGRFTISRDNAKNTVYLQMNSLKPEDTAVYYCAKVYDRSGGDYWGQGTQVTVSS”, the entry is “low polyreactivity”; as for “QVQLVESGGGLVQAGGSLRLSCAASGRTFPFNAMGWYRQPPGKERELVAVINSGGSTYYADSVKGRFTISRDNAKNTVYLQMNSLKPEDTAVYYCYVKRYLWFTDLLYDYWGQGTQVTVSS”, “high polyreactivity”; as for “QVQLVESGGGLVQAGGSLRLSCAASGRTFPFYAMGWYRQAPGKERELVAAINSGGITNYADSVKGRFTISRDNAKYTVYLQMNSLKPEDTAVYYCAAKTAFYRERGYWGQGTQVTVSS”, “low polyreactivity”.
For “QVQLVESGGGLVQAGGSLRLSCAASGRTFPFYAMGWYRQAPGKERELVADITSSGGSTYYADSVKGRFTISRDNAKNTVYLQINSLKPEDTAVYYCNKRPWTRFDSGQGTQVTVSS”, the “polyreactivity (PSR sort gate)” value was “low polyreactivity”.
To “QVQLVESGGGLVQAGGSLRLSCAASGRTFPFYAMGWYRQAPGKERELVAVITWRGSNTYADSVKGRFTISRDNAKNTVYLQMNSLKPEDTAVYYCSATGGRYIDGYYYWGQGTQVTVSS” belongs “high polyreactivity”; to “QVQLVESGGGLVQAGGSLRLSCAASGRTFPGNAMGWYRQAPGKERELVAAISRRGGTTYYADSVKGRFTITRDNAKNTVYLQMNSLKPEDTAVYYCAKSYRDYGISDFDYWGQGTQVTVSS”, “high polyreactivity”.
To “QVQLVESGGGLVQAGGSLRLSCAASGRTFPGNSMGWYRQAPGKERELVAAISWSGTRTYYADSVKGRFTISRDNAKNTVYLQMNSLKPEDTAVYYCNVVVKGAWDYYPYDYCGQGTQVTVSS” belongs “high polyreactivity”.
For “QVQLVESGGGLVQAGGSLRLSCAASGRTFPGYAMGWYRQAPGKERELVAAISNSGGRTYYADSVKGRFTISRDNAKNTVYLQMNSLKPEDTAVYYCNALGRVRYSPRYGYDYWGQGTQVTVSS”, the “polyreactivity (PSR sort gate)” value is listed as “high polyreactivity”.
As for “QVQLVESGGGLVQAGGSLRLSCAASGRTFPGYAMGWYRQAPGKERELVAAITSSGSSTYYADSVKGRFTISRDNAKNTVYLQMNSLKPEDTAVYYCAAKTSGDYDYWGQGSQVTVSS”, the entry is “low polyreactivity”.
Regarding “QVQLVESGGGLVQAGGSLRLSCAASGRTFPGYAMGWYRQAPGKERELVAGISYRGGSTYYADSVKGRFTISRDNAKNTVYLQMNSLKPEDTAVYYCARDYSRHKGDYWGQGTQVTVSS”, the “polyreactivity (PSR sort gate)” value is listed as “low polyreactivity”.

The values are drawn from the nanobody polyreactivity screen of Harvey et al. (2022).
